Source: US20230212266A1 (FRED HUTCHINSON CANCER CENTER, published 2023)
Where two headings read alike, the source gives them in different places.

How the values were obtained:
Assay in all cases: BLI, mAb on anti-human Fc probe, antigen in solution
[1] = biological target: T1, SARS-CoV-2 receptor binding domain (RBD) (SARS-CoV-2, UniProt P0DTC2 319-591)
[2] = biological target: T1, SARS-CoV-2 receptor binding domain (RBD); remark: listed apart in the source
[3] = biological target: T1, SARS-CoV-2 receptor binding domain (RBD); remark: listed apart in the source
[4] = biological target: T1, SARS-CoV-2 receptor binding domain (RBD); remark: listed apart in the source
[5] = biological target: T1, SARS-CoV-2 receptor binding domain (RBD); remark: listed apart in the source
[6] = biological target: T1, SARS-CoV-2 receptor binding domain (RBD); remark: listed apart in the source
[7] = biological target: T1, SARS-CoV-2 receptor binding domain (RBD); remark: listed apart in the source
[8] = biological target: T1, SARS-CoV-2 receptor binding domain (RBD); remark: listed apart in the source
[9] = biological target: T1, SARS-CoV-2 receptor binding domain (RBD); remark: listed apart in the source
[10] = biological target: T1, SARS-CoV-2 receptor binding domain (RBD); remark: listed apart in the source
[11] = biological target: T1, SARS-CoV-2 receptor binding domain (RBD); remark: listed apart in the source
[12] = biological target: T1, SARS-CoV-2 receptor binding domain (RBD); remark: listed apart in the source
[13] = biological target: T1, SARS-CoV-2 receptor binding domain (RBD); remark: listed apart in the source
[14] = biological target: T1, SARS-CoV-2 receptor binding domain (RBD); remark: listed apart in the source
[15] = biological target: T1, SARS-CoV-2 receptor binding domain (RBD); remark: listed apart in the source
[16] = biological target: T1, SARS-CoV-2 receptor binding domain (RBD); remark: listed apart in the source

B1: CV2-14 (antibody, V domains shown)
VH: QVQLVESGGGVVQPGRSLRLSCAASGFTFSSFALHWVRQAPGKGLEWVAVVSYDGSNKYYADSVKGRFTISRDNSKNTLYLQMNSLRAEDTAAYYCARSMGGNYADYFDYWGQGTLVTVSS
VL: EIVLTQSPATLSLSPGERATLSCRASQSVTNYLAWYQQKPGQAPRLLIYDASNRATGIPARFSGSGSGTDFTLTISSLEPEDFAVYYCQQRSNWPNTFGQGTRLEIK
notes: expressed as IgG
- binding result [1]: no binding

B2: CV2-29 (antibody, V domains shown)
VH: QVQLVESGGGVVQPGRSLRLSCAASGFTFSTYAMHWVRQAPGKGLEWVAVISYDGSNKYYADSVKGRFTISRDNSKNTLYLQMNSLRAEDTAVYYCARAYGGSYFYGMDVWGQGTTVTVSS
VL: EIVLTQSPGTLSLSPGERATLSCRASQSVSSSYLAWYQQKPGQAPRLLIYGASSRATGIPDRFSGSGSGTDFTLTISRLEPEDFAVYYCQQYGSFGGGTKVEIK
notes: expressed as IgG
- binding result [2]: no binding

B3: CV2-22 (antibody, V domains shown)
VH: QVQLVESGGGVVQPGRSLRLSCAASGFTFSSYGMHWVRQAPGKGLEWVAVISYDGSNKYYADSVKGRFTISRDNSKNTLYLQMNSLRAEDTALYYCASEIVSFIGSSEDYWGQGTLVTVSS
VL: SYELTQPPSVSVSPGQTARITCSGDALPKKYAYWYQQKSGQAPVLVIYEDSKRPSGIPERFSGSSSGTMATLTISGAQVEDEADYCCYSTDSSDNHRRVFGTGTKVTVL
notes: expressed as IgG
- binding result [3]: no binding

B4: CV2-23 (antibody, V domains shown)
VH: QVQLVESGGGVVQPGRSLRLSCAASGFTFNSFAMHWVRQAPGKGLEWVAVISYDGNNKYYADSVKGRFTISRDNSKNTLYLQMNSLRAEDTAVYYCARDRSGGYSCFDYWGQGTLVTVSS
VL: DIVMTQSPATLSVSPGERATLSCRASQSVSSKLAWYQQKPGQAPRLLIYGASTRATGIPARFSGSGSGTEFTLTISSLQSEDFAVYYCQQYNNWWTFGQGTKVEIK
notes: expressed as IgG
- binding result [4]: no binding

B5: CV2-25 (antibody, V domains shown)
VH: EVQLVQSGAEVKKPGESLRISCKGSGYSFTSYWISWVRQMPGKGLEWMGKIDPSDSYTNYSPSFQGHVTISADKSISTAYLQWSSLKASDTAMYYCARQFGGELLGWFDPWGQGTLVTVSS
VL: DIQMTQSPSSLSASVGDRVTITCRASQGISNYLAWYQQKPGKVPKLLIYAASTLQSGVPSRFSGSGSGTDFTLTISSLQPEDVATYYCQKYNSAPFTFGPGTKVDIK
notes: expressed as IgG
- binding result [5]: no binding

B6: CV2-21 (antibody, V domains shown)
VH: QVQLVQSGAEVKKPGASVKVSCKAFGYTFTKNGINWVRQAPGQGLEWMGWISPNNGYTNFAQKFQGRATMTSDTSTSTAYMELRSLRSDDTAVYYCARVRVDYDSSGYDAYYYHLDVWGQGTTVTVSS
VL: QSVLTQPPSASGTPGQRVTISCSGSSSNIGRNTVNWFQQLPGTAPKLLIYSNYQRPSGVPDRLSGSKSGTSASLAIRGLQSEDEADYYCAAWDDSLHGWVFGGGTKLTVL
notes: expressed as IgG
- binding result [6]: no binding

B7: CV2-26 (antibody, V domains shown)
VH: QVQLVESGGGVVQPGRSLRLSCAAAGFIFSSYAMNWVRQAPGKGLEWVAVISYDGSNKYYADSVKGRFTISRDNSKNTLNLQMNSLRAEDTAVYYCARGNGYIIIDYWGQGTLVTVSS
VL: QLVLTQSPSASASLGASVKLTCTLSSGHSSYAIAWHQQQPEKGPRYLMKFNSDGTHSKGDGIPDRFSGSSSGAERSLTISSLQSEDEADYYCQTWGTGGVFGGGTKLTVL
notes: expressed as IgG
- binding result [7]: no binding

B8: CV2-24 (antibody, V domains shown)
VH: EVQLVESGGGLVKPGGSLRLSCAASGFTFSSYSMNWVRQAPGKGLEWVSSISSTSNYIYYADSVKGRFTISRDNAKNSLYLQMNSLRAEDTAVYYCARVSPNYDFWSGYYPDAFDIWGQGTMVTVSS
VL: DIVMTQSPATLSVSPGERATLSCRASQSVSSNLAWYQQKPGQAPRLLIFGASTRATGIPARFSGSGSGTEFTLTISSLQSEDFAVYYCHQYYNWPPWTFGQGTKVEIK
notes: expressed as IgG
- binding result [8]: no binding

B9: CV2-28 (antibody, V domains shown)
VH: QLQLQESGPGLVKPSETLSLTCTVSGGSVSSNAYYWGWIRQPPGKGLEWIGSVNYRGSTYYIPTLKSRITISVNTSKNQFSLKLTSVTAADTAVYYCARRGVALVTITYFDFWGQGALVTVSS
VL: QSVLTQPPSVSGAPGQRVTITCTGSSSNIGSGYDVHWYQQLPGTAPKLLIYGNTNRPSGVPDRFSGSKSGTSASLAITGLQAEDEAHYYCQSYDSSVVFGGGTKLTVL
notes: expressed as IgG
- binding result [9]: no binding

B10: CV2-27 (antibody, V domains shown)
VH: QLQLQESGPGLVKPSETLSLTCTVSGGSISSSSYYWGWIRQPPGKGLEFIGSIYYSGSTYYNPSLKSRVTISVDTSKNQFSLKLSSVTAADTAVYYCATQEVVLVRPYNYNGMDVWGQGTTVTVSS
VL: QSALTQPASVSGSPGQSITLSCTGTSSDVGGYNYVSWYQQHPGKAPKLMIYEVSNRPSGVSNRFSGSKSGNTASLTISGLQAEDEADYYCSSYTSISTLVFGTGTKVTVL
notes: expressed as IgG
- binding result [10]: no binding

B11: CV8 (antibody, V domains shown)
VH: QVQLVQSGAEVKKPGASVKVSCKASGYTFTSYGISWVRQAPGQGLEWMGWISAYNGNTNYAQKLQGRVTMTTDTSTSTAYMELRSLRSDDTAVYYCARLVPTWASYYDFWSGYPGGYGMDVWGQGTTVTVSS
VL: not shown
notes: expressed as IgG
- binding result [11]: no binding

B12: CV2-17 (antibody, V domains shown)
VH: EVQLVESGGGLVQPGGSLRLSCSASGFTFSSYAMHWVRQAPGKGLEYVSTISTNGGSTYYADSVKGRFTISRDNSKNTLYLQMSSLRAEDTAVYYCVLGYCSSTSCQHFDYWGQGTLVTVSS
VL: QSALTQPASVSGSPGQSITISCTGTSSDVGAYNYVSWYQQHPGKAPKLMIYEVSNRPSGVSNRFSGSKSGNTASLTISGLQAEDEADYYCSSYTSSSTPYVFGTGTKVTVL
notes: expressed as IgG
- binding result [12]: no binding

B13: CV2-19 (antibody, V domains shown)
VH: QVQLVESGGGVVQPGRSLRLSCAASGFTFSSYAMHWVRQAPGKGLEWVAIISYDGINKYYADSVKGRFTISRDNSKNTLYLQMNSLRVEDTAVYYCARPGGGSYYGPFDYWGQGTLVTVSS
VL: QSALTQPASVSGSPGQSITISCTGTSSDVGSYNYVSWYQQHPGKAPKLMIYEVSNRPSGVSNRFSGSKSGNTASLTLSGLQAEDEADYYCSSYTSSSTLYVFGTGTKVTVL
notes: expressed as IgG
- binding result [13]: no binding

B14: CV2-18 (antibody, V domains shown)
VH: QVQLVQSGAEVKKPGSSVKVSCKASGGTFSSYAISWVRQAPGQGLEWMGGIIPIFGTANYAQKFQGRVTITADESTSTAYMELSSLRSEDTAVYYCARVGAYDSSGYYQDLWGRGTLVTVSS
VL: EIVLTQSPATLSLSPGERATLSCRASQSVSSYLAWYQQKPGQAPRLLIYDASNRATGIPARFSGSGSGTDFTLTISSLEPEDFAVYYCQQRSNWPPVITFGQGTRLEIK
notes: expressed as IgG
- binding result [14]: no binding

B15: CV2-16 (antibody, V domains shown)
VH: QVQLVQSGAEVKKPGSSVKVSCKASGGTFSSFAFIWVRQAPGQGLEWMGGIIPIFGTAKYTQKFQGRVTITADESTSTAYMELSSLRSEDTAVYYCARVSYYDSSGFYTDYWGQGTLVTVSS
VL: DIVMTQSPATLSLSPGERATLSCRASQSVSSFLAWYQQKPGQAPRLLIYDASNRATGIPARFSGSGSGTDFTLTISSLEPEDFAVYYCQQRSNWPPEYTFGQGTKLEIK
notes: expressed as IgG
- binding result [15]: no binding

B16: CV2-15 (antibody, V domains shown)
VH: QVQLVQSGAEVKKPGSSVKVSCKTSGGIFSSYAISWVRQAPGQGLEWMGGIIPIFGTANYAQKFQGRVTITADESTSTAYMELSSLRSEDTAVYYCASYSGFDDYGHYRNYWGQGTLVTVSS
VL: DIVMTQTPATLSLSPGERATLSCRASQSVSRYLAWYQQKPGQAPRLLIYDASNRATGIPARFSGSGSGTDFTLTISSLEPEDFAVYYCQQRYNWPPELTFGGGTKVEIK
notes: expressed as IgG
- binding result [16]: no binding
